Molecular target: the molecule itself
Assay: native gel or EMSA; blue native PAGE (3-12%) and immunoblot; purified caspase-4 (C258S) incubated with or without oxidized GPx8 30 min at 4°C, then with different amounts of LPS 30 min at 37°C; LPS-induced oligomerization

B1: FLAG-tagged human caspase-4 (C258S) protease-deficient mutant (natural protein, UniProt P49662 1-377, looked up)
chain: MAEGNHRKKPLKVLESLGKDFLTGVLDNLVEQNVLNWKEEEKKKYYDAKTEDKVRVMADSMQEKQRMAGQMLLQTFFNIDQISPNKKAHPNMEAGPPESGESTDALKLCPHEEFLRLCKERAEEIYPIKERNNRTRLALIICNTEFDHLPPRNGADFDITGMKELLEGLDYSVDVEENLTARDMESALRAFATRPEHKSSDSTFLVLMSHGILEGICGTVHDEKKPDVLLYDTIFQIFNNRNCLSLKDKPKVIIVQASRGANRGELWVRDSPASLEVASSQSSENLEEDAVYKTHVEKDFIAFCSSTPHNVSWRDSTMGSIFITQLITCFQKYSWCCHLEEVFRKVQQSFETPRAKAQMPTIERLSMTRYFYLFPGN
notes: human caspase-4 with the protease-deficient mutation C258S; also called Casp4C258S; source: 293T, transfected, in lysate
Question: Does B1 bind?
Answer: binds
